From US20250388676A1 (Sanofi, published 2025) come the findings set out here.

Assay [1] has as its target T1, cynomolgus PD-1 (cynomolgus monkey).
T1 construct: whole, on cells; also called cyno PD-1; cyPD-1
In words: flow cytometry on pre-B 300.19 cells expressing cyno PD-1, detection with anti-human IgG Fc F(ab')2 [panel B].

For assay [2], the target named is T2, human PD-1 (human, UniProt Q15116 25-288).
T2 construct: On pre-B 300.19 cells stably expressing human PD-1, on NFAT-RE/PD-1 Jurkat reporter cells and on T cells of hGITR/hPD-1 knock-in mice; also called hPD-1; PD1 (on reporter cells)
T2 sequence (Q15116 25-288 limits assumed): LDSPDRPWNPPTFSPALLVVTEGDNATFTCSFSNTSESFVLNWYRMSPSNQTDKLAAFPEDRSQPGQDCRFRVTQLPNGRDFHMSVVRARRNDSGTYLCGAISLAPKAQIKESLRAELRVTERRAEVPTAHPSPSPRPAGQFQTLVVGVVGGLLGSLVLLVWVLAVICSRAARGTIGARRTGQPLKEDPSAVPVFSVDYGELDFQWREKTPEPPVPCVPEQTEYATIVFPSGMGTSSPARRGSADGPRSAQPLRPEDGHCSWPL
In words: flow cytometry on pre-B 300.19 cells expressing human PD-1, detection with anti-human IgG Fc F(ab')2 [panel A].

Assay [3] addresses T2, human PD-1. In words: receptor occupancy by flow cytometry on activated splenic CD4+ T cells of hGITR/hPD-1 KI mice; free PD-1 detected with competing Anti-hPD-1-BV421, total PD-1 with non-competing Anti-hPD-1 NANOBODY-A647 [panel A].
Text: (§1) Anti-hGITR NANOBODY®-A488 as non-competing agent detecting total GITR Activated T cells were then washed and analyzed on a Cytek® Aurora flow cytometer.
Assay [4] deals with T2, human PD-1. The assay is described as follows: receptor occupancy by flow cytometry on activated splenic CD8+ T cells of hGITR/hPD-1 KI mice; free PD-1 detected with competing Anti-hPD-1-BV421, total PD-1 with non-competing Anti-hPD-1 NANOBODY-A647 [panel A].
Text: as §1
In assay [5] the target is cynomolgus GITR (cynomolgus monkey). In words: cell-based or functional assay.
The target of assay [6] is T2, human PD-1. In words: cell-based or functional assay.
Assay [7] concerns the target T3, human GITR (human, UniProt Q9Y5U5 26-241).
T3 sequence (looked up): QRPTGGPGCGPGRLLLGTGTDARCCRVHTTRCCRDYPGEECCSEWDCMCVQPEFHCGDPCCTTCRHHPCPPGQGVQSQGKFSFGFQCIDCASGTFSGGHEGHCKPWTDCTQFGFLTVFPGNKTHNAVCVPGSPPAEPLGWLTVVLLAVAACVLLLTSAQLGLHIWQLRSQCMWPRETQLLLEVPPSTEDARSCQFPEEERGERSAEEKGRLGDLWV
The assay is described as follows: cell-based or functional assay.

The target in assay [8] is T1, cynomolgus PD-1. The assay is described as follows: flow cytometry on pre-B 300.19 cells expressing cyno PD-1, anti-human IgG Fc detection, 4PL fit.
Experimental: (§2) Binding properties of the bispecific molecules and controls to multiple targets expressed on cell surfaces were evaluated with flow cytometry. […] Cell suspensions were analyzed with iQue Screener 3 (Sartorius, Intellicyt). In each washing step, plates were centrifuged for 2 minutes at 300×g at 4° C., supernatants discarded and buffer dispensed by Biotek ELX405 microplate washer (BioTek). Other reagents were added either manually or with ViaFlo (Integra). EC50s were estimated by dose response modelling. Curves were fit using 4 parameter logistic regression in GraphPad (GraphPad Software Inc.).
The target of assay [9] is T2, human PD-1. The assay is described as follows: flow cytometry on pre-B 300.19 cells expressing human PD-1, anti-human IgG Fc detection, 4PL fit.
Experimental: as §2
Assay [10] has as its target T4, cynomolgus GITR (cynomolgus monkey).
T4 construct: whole, on cells; also called cyno GITR; cyGITR
In words: flow cytometry on NFkB-NlucP/HEK293 cells expressing cyno GITR, anti-human IgG Fc detection, 4PL fit.
Experimental: as §2

Assay [11] addresses T3, human GITR. The assay is described as follows: flow cytometry on NFkB-NlucP/HEK293 cells expressing human GITR, anti-human IgG Fc detection, 4PL fit.
Experimental: as §2
In assay [12] the target is T3, human GITR. In words: receptor occupancy by flow cytometry on activated splenic CD4+ T cells of hGITR/hPD-1 KI mice; free GITR detected with competing Anti-hGITR-BV605, total GITR with non-competing Anti-hGITR NANOBODY-A488 [panel B].
Text: as §1
For assay [13], the target named is T3, human GITR. The assay is described as follows: receptor occupancy by flow cytometry on activated splenic CD8+ T cells of hGITR/hPD-1 KI mice; free GITR detected with competing Anti-hGITR-BV605, total GITR with non-competing Anti-hGITR NANOBODY-A488 [panel B].
Text: as §1

Positions count from the first letter of the chain named.

B1: GITRLmut/anti-PD-1 mAb2 (antibody, V domains shown)
VH: QLQLQESGPGLVKPSETLSLTCTVSGGSISSSSYFWGWIRQPPGKGLEWIGSIYRSGSTYYNPSLKSRVTISVDTSKNQFSLKLSSVTAADTAVYYCARGITGDPGDYWGQGTLVTVSS
VL: EIVLTQSPATLSLSPGERATLSCGASQSVPINFLAWYQQKPGLAPRLLIYEASSRHTGIPDRFSGSGSGTDFTLTISRLEPEDFAVYYCGQYGSSPYTFGQGTKLEIK
As to B1, the “EC50 (read off the curve)” value in assay [1] is ~0.4 nM; in assay [2], ~0.2 nM; in assay [3], ~0.4 nM; in assay [4], ~0.3 nM.

B2: GITRLmut/anti-PD-1 mAb1 (antibody, V domains shown)
VH: B1 VH with S31T
VL: B1 VL with P30S, H56A, G90Q
B2: the half-maximal effective concentration (EC50 (read off the curve)) was ~0.5 nM in assay [1] and ~0.3 nM in assay [2].

B3: GITRL/anti-PD-1 mAb2 (bispecific antibody, human IgG1, kappa, L234A L235A)
heavy: not shown
light: EIVLTQSPATLSLSPGERATLSCGASQSVPINFLAWYQQKPGLAPRLLIYEASSRHTGIPDRFSGSGSGTDFTLTISRLEPEDFAVYYCGQYGSSPYTFGQGTKLEIKRTVAAPSVFIFPPSDEQLKSGTASVVCLLNNFYPREAKVQWKVDNALQSGNSQESVTEQDSKDSTYSLSSTLTLSKADYEKHKVYACEVTHQGLSSPVTKSFNRGEC
notes: Single-chain GITRL trimer inserted between VH and CH1 of each heavy chain; bivalent for PD-1, hexavalent for GITR; also called GITRL trimer/anti-PD-1 mAb2; single-chain GITRL trimer/anti-PD-1 mAb2
As for B3, the “cyGITR EC50 (reporter assay)” value in assay [5] was found to be 0.0083 nM. In addition, the “hPD-1 IC50 (reporter assay)” value in assay [6] came to 0.5 nM. For the same molecule, the “hGITR EC50 (reporter assay)” value in assay [7] amounted to 0.0077 nM. Besides, the EC50 in assay [8] worked out at 0.37 nM; in assay [9], 0.24 nM; in assay [10], 0.034 nM; in [11] it was 0.034 nM. Besides, the 50% effective concentration (EC50 (read off the curve)) in assay [12] is ~0.2 nM; in assay [3], ~0.03 nM; in assay [13], ~0.2 nM; in assay [4], ~0.03 nM.

B4: GITRL/anti-PD-1 mAb1 (bispecific antibody, human IgG1, kappa, L234A L235A)
heavy: not shown
light: B3 light with P30S, H56A, G90Q
notes: Single-chain GITRL trimer inserted between VH and CH1 of each heavy chain; bivalent for PD-1, hexavalent for GITR; also called GITRL trimer/anti-PD-1 mAb1; single-chain GITRL trimer/anti-PD-1 mAb1
For B4, the “cyGITR EC50 (reporter assay)” value in [5] worked out at 0.01 nM. Also, in assay [6], the “hPD-1 IC50 (reporter assay)” value was 0.56 nM. Further, the “hGITR EC50 (reporter assay)” value in assay [7] was determined as 0.0087 nM. The concentration giving a half-maximal response (EC50) in [8] turned out to be 0.58 nM; in assay [9], 0.33 nM; in assay [10] it was 0.014 nM; in assay [11] it was 0.014 nM.
